# PMC8960804
# Biological target: RexT, redox-sensing transcriptional regulator of Nostoc (Anabaena) sp. PCC 7120, tag-free, reduced (Nostoc (Anabaena) sp. PCC 7120)
# Test: SEC; HiLoad 16/600 Superdex 200 pg, 50 mM HEPES pH 7.5, 100 mM NaCl, 5% v/v glycerol, 2 mM DTT
substance,measurement,value
"RexT, redox-sensing transcriptional regulator of Nostoc (Anabaena) sp. PCC 7120, tag-free, reduced (natural protein)",stoichiometry N,2
